Where no end group is shown, it is not given here.

B1: His-Daxx (183–260) (domain or fragment, UniProt Q9UER7 183-260, looked up)
chain: GSRRQIQRLEQLLALYVAEIRRLQEKELDLSELDDPDSAYLQEARLKRKLIRLFGRLCELKDCSSLTGRVIEQRIPYR
B2: His-menin (natural protein, UniProt O00255-2 1-610, looked up)
chain: MGLKAAQKTLFPLRSIDDVVRLFAAELGREEPDLVLLSLVLGFVEHFLAVNRVIPTNVPELTFQPSPAPDPPGGLTYFPVADLSIIAALYARFTAQIRGAVDLSLYPREGGVSSRELVKKVSDVIWNSLSRSYFKDRAHIQSLFSFITGTKLDSSGVAFAVVGACQALGLRDVHLALSEDHAWVVFGPNGEQTAEVTWHGKGNEDRRGQTVNAGVAERSWLYLKGSYMRCDRKMEVAFMVCAINPSIDLHTDSLELLQLQQKLLWLLYDLGHLERYPMALGNLADLEELEPTPGRPDPLTLYHKGIASAKTYYRDEHIYPYMYLAGYHCRNRNVREALQAWADTATVIQDYNYCREDEEIYKEFFEVANDVIPNLLKEAASLLEAGEERPGEQSQGTQSQGSALQDPECFAHLLRFYDGICKWEEGSPTPVLHVGWATFLVQSLGRFEGQVRQKVRIVSREAEAAEAEEPWGEEAREGRRRGPRRESKPEEPPPPKKPALDKGLGTGQGAVSGPPRKPPGTVAGTARGPEGGSTAQVPAPTASPPPEGPVLTFQSEKMKGMKELLVATKINSSAIKLQLTAQSQVQMKKQKVSTPSDYTLSFLKRQRKGL

Experiment [1] addresses His-Daxx (183–398) (UniProt Q9UER7 183-398). The experiment is described as follows: pull-down.
In experiment [2] the target is B2. Briefly: co-IP.
The target in experiment [3] is GST-Daxx (UniProt Q9UER7 1-740). Briefly: pull-down.
GST-Daxx, sequence (Q9UER7 whole entry): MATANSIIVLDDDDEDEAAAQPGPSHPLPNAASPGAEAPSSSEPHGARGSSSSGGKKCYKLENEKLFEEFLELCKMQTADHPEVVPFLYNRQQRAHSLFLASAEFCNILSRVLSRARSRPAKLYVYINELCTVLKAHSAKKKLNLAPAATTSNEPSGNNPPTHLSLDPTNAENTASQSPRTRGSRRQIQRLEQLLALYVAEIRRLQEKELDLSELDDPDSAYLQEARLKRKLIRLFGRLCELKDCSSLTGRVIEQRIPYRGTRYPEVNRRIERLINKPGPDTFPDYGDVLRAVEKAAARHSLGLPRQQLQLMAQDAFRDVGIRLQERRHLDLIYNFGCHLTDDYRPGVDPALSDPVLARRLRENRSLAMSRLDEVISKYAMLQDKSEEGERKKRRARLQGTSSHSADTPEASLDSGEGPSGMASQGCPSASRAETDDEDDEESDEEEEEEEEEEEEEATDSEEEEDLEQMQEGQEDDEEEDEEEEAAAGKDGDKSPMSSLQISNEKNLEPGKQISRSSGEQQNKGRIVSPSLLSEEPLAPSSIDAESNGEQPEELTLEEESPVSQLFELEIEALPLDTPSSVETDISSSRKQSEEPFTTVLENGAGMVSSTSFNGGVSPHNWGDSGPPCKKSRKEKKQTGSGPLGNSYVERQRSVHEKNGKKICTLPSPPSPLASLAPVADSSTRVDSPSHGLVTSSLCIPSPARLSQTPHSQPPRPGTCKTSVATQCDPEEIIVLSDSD

For GTCKWEEGSPTPVLHVGWATQSE (also: biotinylated) [biotinylated menin peptide GTCKWEEGSPTPVLHVGWATQSE], the binding result in experiment [1] is given as “binds”.

As for B1, the binding result in experiment [2] is on record as “binds”.

In the case of B2, the binding result in experiment [3] is “binds”.

(Values after article PMC5243199 (Cancer research, 2016).)
